Experimental data published in US12459997B2, “Compounds and methods targeting interleukin-19” (Eli Lilly and Company, priority 2018, dated 2025).

Legend:
[1] = molecular target: T1, human IL-19 / human IL-20R beta Fc-fusion protein (Homo sapiens, UniProt Q9UHD0); assay: BLI in vitro neutralization: IL-19 captured by antibody, then incubated with IL-20R beta Fc; settings: block of IL-19 binding to soluble receptor
T1 sequence (Q9UHD0 25-177): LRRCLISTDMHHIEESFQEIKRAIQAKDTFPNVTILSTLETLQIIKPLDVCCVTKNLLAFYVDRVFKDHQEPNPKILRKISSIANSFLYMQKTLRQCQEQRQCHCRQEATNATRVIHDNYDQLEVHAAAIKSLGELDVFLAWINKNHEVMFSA
Source text: Alternatively, a biophysical assay such as bio-layer interferometry (BLI) may be used for assessing neutralization of IL-19 by antibodies of the present invention. Binding between a ligand immobilized on the biosensor tip surface and an analyte in solution produces an increase in optical thickness at the biosensor tip, which results in a wavelength shift (expressed in nm). According to such assay, the IL-19 receptor (i.e., […]) is expressed in a membrane-free manner (such as with an Fc-fusion e.g. IL20Rbeta Fc chimera protein from R&D Systems catalog 1788-IR-050). […] The immobilized antibodies are then incubated with recombinant human IL-19 protein diluted to 100 nM using HBS-EP+ running buffer (GE Healthcare, 10 mM Hepes pH7.4+150 mM NaCl+3 mM EDTA+0.05% surfactant P20) for 240-300 secs. The human IL-19, after binding to the anti-IL-19 antibody, is assessed by incubation with human IL-20R beta Fc-fusion protein for 240-300 secs. The ability of the antibody to block or neutralize binding of the IL-19 ligand to the soluble receptor is observed as a minimal (<0.025 nm) increase in the wavelength during this step of the assay.

[2] = molecular target: T2, recombinant human IL-19 (Homo sapiens, UniProt Q9UHD0); assay: HDX-MS epitope mapping; assay type: binding; settings: IL-19:antibody molar ratio 1:1.2
T2 sequence (Q9UHD0 25-177): T1 sequence (Q9UHD0 25-177)
Method: Briefly, HDX-MS is performed on a Waters nanoACQUITY system with HDX technology, including a LEAP HDX robotic liquid handling system and mass analysis is performed on a Waters Xevo G2-Tof mass spectrometer. […] The deuterium exchange experiment is initiated adding 55 uL of D2O buffer containing 0.1×PBS to 5 ul of human IL-19 or the human IL-19/antibody complex at 15° C. for various amounts of time (0 s, 10 s, 1 min, 10 min, 60 min, 120/240 min). The reaction is quenched using equal volume of was 0.32M TCEP, 0.1M phosphate pH 2.5 for two minutes at 1° C. 50 μL of the quenched reaction is injected on to an on-line pepsin column (Waters BEH Enzymate) at 14° C., using 0.2% formic acid in water as the mobile phase at a flow rate of 100 μL/min for 4 min. The resulting peptic peptides are then separated on a C18 column (Waters, Acquity UPLC BEH C18, 1.7 m, 1.0 mm×50 mm) fit with a Vanguard trap column using a 3 to 85% acetonitrile (containing 0.2% formic acid) gradient over 10 min at a flow rate of 50 L/min. The separated peptides are directed into a Waters Xevo G2 time-of-flight (qTOF) mass spectrometer. […] The relative deuterium incorporation for each peptide is determined by processing the MS data for deuterated samples along with the non-deuterated control in DynamX.

[3] = molecular target: T2, recombinant human IL-19; assay: Bio-layer interferometry (BLI) binding kinetics and affinity (Octet Red96); settings: 25° C.; 1:1 binding model
Method: Bio-layer interferometry (BLI) assay, measured with a Octet Red96® instrument available from ForteBio (using HBS-EP+ running buffer (GE Healthcare, 10 mM Hepes pH7.4+150 mM NaCl+3 mM EDTA+0.05% surfactant P20) at 25° C.), is used to measure binding of the exemplified IL-19 antibodies of the present invention to recombinant human IL-19 (having the amino acid sequence set for in SEQ ID NO: 1).
Except as noted, all reagents and materials are from ForteBio (Freemont, Calif.). An AMQ biosensor is used to immobilize antibody of interest for analysis. […] Recombinant human IL-19 is prepared to concentrations of 270, 90, 30, 10, 3.33, 1.11, 0.370, and 0 (blank) nM by dilution into running buffer. Each analysis consists of: (1) capturing antibody samples on biosensors for 300 secs; (2) establishing a baseline by incubating antibody loaded biosensors with running buffer for 60 secs; (3) incubating antibody loaded biosensors with serially diluted recombinant human IL-19 for 300 secs to monitor association phase; (4) return of biosensor to running buffer to monitor dissociation phase.
Binding data is processed using standard double-referencing and fit to a 1:1 binding model using Data Analysis v9.0 evaluation software, to determine the association rate (kon, M^−1 s^−1 units), dissociation rate (koff, s^−1 units), and Rmax (nm units). The equilibrium dissociation constant (KD) was calculated from the relationship KD=koff/kon, and is in molar units.

B1: R_39: rabbit-derived IL-19 antibody; LC SEQ ID NO: 310, HC SEQ ID NO: 311 (antibody)
heavy: QEQLKESGGGLVQPGGSLKLSCKASGFDLSSYGVSWVRQAPGKGLEWIGYIDPVFGSTYYANWVNGRFTISSDNAQNTLYLQLNSLTAADTATYFCARGSGYVYYGYTYDLWGPGTLVTVSSGQPKAPSVFPLAPCCGDTPSSTVTLGCLVKGYLPEPVTVTWNSGTLTNGVRTFPSVRQSSGLYSLSSVVSVTSSSQPVTCNVAHPATNTKVDKTVAPSTCSKPTCPPPELLGGPSVFIFPPKPKDTLMISRTPEVTCVVVDVSQDDPEVQFTWYINNEQVRTARPPLREQQFNSTIRVVSTLPIAHQDWLRGKEFKCKVHNKALPAPIEKTISKARGQPLEPKVYTMGPPREELSSRSVSLTCMINGFYPSDISVEWEKNGKAEDNYKTTPAVLDSDGSYFLYSKLSVPTSEWQRGDVFTCSVMHEALHNHYTQKSISRSPGK
light: DIVMTQTPASVEAAVGGTVTIKCQASQSIYRYLSWYQQKPGQRPKLLIYGASNLASGVSSRFKGSGSGTEFTLTISDLECADAATYYCQSYYYSSSSGYGNVFGGGTEVVVKGDPVAPTVLIFPPAADQVATGTVTIVCVANKYFPDVTVTWEVDGTTQTTGIENSKTPQNSADCTYNLSSTLTLTSTQYNSHKEYTCKVTQGTTSVVQSFNRGDC
- Neutralization [1]: Yes (minimal (<0.025 nm) increase in the wavelength)
- residues of SEQ ID NO. 1 with decreased deuterium uptake in complex with antibody (epitope region) [2]: residues 42-60 ([…]), 90-107 ([…]), and 149-160 ([…])
- kon [3]: 206000 M⁻¹ s⁻¹
